Drawing on US20250304650A1, this text covers Kd for one molecule.

In this test the target is feline FcRn (IgG receptor FcRn large subunit p51 with feline beta-2-microglobulin) (feline). Briefly: SPR Biacore 8K+, IgG on C1 chip, pH 5.9, kinetic fit (printed 1:4). A general note: Surface plasmon resonance follows binding to a sensor surface in real time, without labels.

B1: anti-NGF feline IgG1a, Fc variant S428Y, L309V, T286E (antibody, part only; not given: anti-NGF variable domains, not shown: another chain or arm of the molecule; small tags and cut ends)
Fc: PPEMLGGPSIFIFPPKPKDTLSISRTPEVTCLVVDLGPDDSDVQITWFVDNTQVYEAKTSPREEQFNSTYRVVSVLPIVHQDWLKGKEFKCKVNSKSLPSPIERTISKAKGQPHEPQVYVLPPAQEELSRNKVSVTCLIKSFHPPDIAVEWEITGQPEPENNYRTTPPQLDSDGTYFVYSKLSVDRSHWQRGNTYTCSVYHEALHSHHTQKSLTQSPGK
By Kd is commonly meant the free concentration of one partner at which half of the binding sites on the other are occupied at equilibrium, for simple one-to-one binding. A higher Kd goes with a looser complex. As for B1, the Kd is 5.26 nM.
